T1: AF9 YEATS domain (1-138) (human, UniProt P42568 1-138)
T1 sequence (looked up): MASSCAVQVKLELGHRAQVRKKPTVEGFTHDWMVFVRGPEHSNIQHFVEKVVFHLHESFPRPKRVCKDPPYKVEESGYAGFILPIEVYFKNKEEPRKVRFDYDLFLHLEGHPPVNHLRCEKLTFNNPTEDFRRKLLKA

T2: AF9 YEATS domain F59Y (human, UniProt P42568 1-138, F59Y)
T2 sequence (looked up): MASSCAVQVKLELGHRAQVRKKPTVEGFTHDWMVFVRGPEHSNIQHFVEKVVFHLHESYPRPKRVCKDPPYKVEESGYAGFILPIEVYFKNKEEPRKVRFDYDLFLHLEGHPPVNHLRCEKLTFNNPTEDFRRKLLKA

T3: AF9-F28R YEATS domain (1-138) (human, UniProt P42568 1-138, F28R)
T3 sequence (looked up): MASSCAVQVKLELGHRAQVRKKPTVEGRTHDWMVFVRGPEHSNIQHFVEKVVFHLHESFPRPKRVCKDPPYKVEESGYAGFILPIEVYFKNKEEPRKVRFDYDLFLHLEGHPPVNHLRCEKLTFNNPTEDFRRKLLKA


Tests used:
AF9 YEATS domain (1-138) = biological target: T1, AF9 YEATS domain (1-138); assay: ITC
AF9 YEATS domain F59Y = biological target: T2, AF9 YEATS domain F59Y; assay: ITC
[1] = biological target: T3, AF9-F28R YEATS domain (1-138); assay: crystal structure

Row | Molecule | Kd (AF9 YEATS domain (1-138)) [µM] | fold reduction of affinity against WT AF9 YEATS (AF9 YEATS domain F59Y) [fold] | binding result [1]
1 | H3K18la peptide | 172 | – | –
2 | H3K9ac peptide (ITC) | 4.6 | – | –
3 | ARTKQTARKS (lactyl-lysine (L-lactylation) at K9) [H3K9la peptide (ITC)] | 74.4 | 2 | –
4 | ARTKQTARKS (peptide, UniProt P68431 2-11, looked up, lactyl-lysine (L-lactylation) at K9) [H3_(1-10)K9la peptide] | – | – | binds

From publication doi:10.1101/2025.06.18.660498 (bioRxiv, 2025)
